Patent US20240409617A1
Changes are numbered by the printed parent chain.

B1: Ab2-7 IgG (antibody, V domains shown)
VH: QVTLKESGPTRVKPTQTLTLTCTFSGFSLSTTGVGVGWIRQPPGKALEWLALIYWNDDKRYSPSLKSRLTITKDTSKNQVVLTMTNMDPVDTATYYCARISGSGYFYPFDIWGQGTTVTVSS
VL: NFMLTQPHSVSESPGKTVTISCTRSSGSIASNYVQWYQQRPGSSPTTVIYEDNQRPSGVPDRFSGSIDSSSNSASLTISGLKAEDEADYYCQSYDSSSLWVFGGGTKLTVL
B2: Ab_18 scFv-Fc (scFv, V domains shown)
VH: EVQLVQSGGGVVQPGRSLRVSCAASGFSFSRYGMHWVRQAPGKGLEWVAFIRHDGSKKYYADSVEGRFTISRDNSRNTVSLEMNSLRGEDTAVYYCAKDGRLEAALDDWGQGTLVTVSS
VL: NFMLTQPHSMSGSAGKTVTVSCIRSSGSIANNFVQWYQQRPGSAPTTVIYEDNQRPSGVPDRFSGSIDSSSNSASLTISGLKTEDEADYYCQSYDSSNLVFGGGTRLTVL
B3: Ab_28 scFv-Fc (scFv, V domains shown)
VH: QVTLKESGPGLVNPSETLSLTCTVSGASISNSFWSWIRQSPGKGLEWIGYTSYSGNSIYNPSLKSRLTMSIDTSKNQLSLNLRSLTAADTAVYYCARREWIKGHFDYWGQGTLVTVSS
VL: B1 VL with R24G, S26G, S44A, A83T, S98N, L99P, W100V
B4: Ab_13 scFv-Fc (scFv, V domains shown)
VH: B1 VH with T10K, R11L, T32S, N56D, T72A, N78Y, T117M, S122A
VL: B1 VL with S44A, A83T, S98N
B5: S1-RBD-R3-T1-C7 Ab (Ab_29) scFv-Fc (scFv, V domains shown)
VH: QVQLQQSGPGLVKPSQTLSLTCAISGDSVSSYSDAWNWIRQSPSRGLEWLGRTYYRSKWYNDYAVSVKSRITINPDTSKNQFSLQLSSVTPEDTAVYYCAREIVATTPFRNYYYGMDVWGQGTTVTVSS
VL: B1 VL with K16N, S25T, Y50F, E51Q, N53K, Q54L, A83T
B6: Ab_25 scFv-Fc (scFv, V domains shown)
VH: QVQLVQSGGGLVQPGGSLRLSCAASGFTFSSYWMSWVRQAPGKGLEWVANIKQDGSEKYYVDSVKGRFTISRDNAKNSLYLQMNSLRAEDTAVYYCARGFYYYGAFDIWGQGTTVTVSS
VL: B1 VL with R24G, S44A, D68G, A83T, S98N, L99H
B7: S1-RBD-R3-T1-F5 (Ab2-7) scFv-Fc (scFv, V domains shown)
VH: B1 VH
VL: B1 VL
B8: Ab_20 scFv-Fc (scFv, V domains shown)
VH: QVQLVQSGGGSVKPGGSLRLSCAASGYRLSDYYMHWVRQAPGKGLEWVANIKQDGSEKYYVDSVKGRFTISRDNAKNSLYLQMNSLRAEDTAVYYCARVRGWSRGYFDYWGQGTLVTVSS
VL: B1 VL with R24G, S44A, T77L, A83T, S98N, L99H
B9: Ab_14 scFv-Fc (scFv, V domains shown)
VH: QVQLQQSGPGLVKPSQTLSLTCAISGDSVSSNSAAWNWIRQSPARGLEWLGRTYYRSRWYNDYAISMKSRITINPDTSKNQFSLQLESVTPEDTAVYYCAREIRGFDYWGQGTLVTVSS
VL: QSVLTQPPSASGSPGQSVTISCTGTSSDVGAYNFVSWYQHHPGKAPKLIIYDFNKRPSGVPDRFSGSKSGNTASLTVSGLQADDEADYYCSSYAGSNNFDVVFGGGTKLTVL
B10: Ab_17 scFv-Fc (scFv, V domains shown)
VH: QVQLVQSGGGVVQPGRSLRLSCAASGFTFDDYAMHWVRQVPGKGLEWVSGIDWNSGVIGYADSVKGRFTISRDNVKNSLYLQMNSLRTEDSALYYCAKDIGPGGSGSYYAFDIWGQGTTVTVSS
VL: QSALTQPASVSGSPGQSITISCTGTSSDVGGSKYVSWYQQHPGKAPKVMIYDVTKRPSGVPDRFSGSKSGNTASLTISGLQAEDEADYYCAAWDDSLNGVVFGGGTKLTVL
B11: Ab_23 scFv-Fc (scFv, V domains shown)
VH: EVQLVQSGAEVKKPGSSVKVSCRSSGGTFSTYGITWVRQAPGQGLEWMGRIIPSLGIPNYAQKFQGRVTITADTSVSTAWMELSSLESDDTAIYYCARENIDLATNDFWGQGTLVTVSS
VL: QSALTQPPSASGSPGQSVTISCTGTSRDIGAYGYVSWYQQVPGKAPKLIIYEVRNRPSGVSSRFSGSKSGNTASLTISGLQAEDEADYYCSSYTSSSTLDVVFGGGTKLTVL
B12: Ab_27 scFv-Fc (scFv, V domains shown)
VH: QVQLVQSGTEVKKPGASVKVSCKASGYSFTGSHLHWVRQAPGQGLEWMGWINPDSGVINYAQKFQGRVTLTRDTSISTAYMELSGLRSDDTAVYYCARDKAIGYVWALDYWGQGTLVTVSS
VL: QSALTQPPSVSGSPGQSVTISCTGTSSDVGTYNRVSWYQQPPGKAPKLMIYEVSNRPSGVSNRFSGSKSGNTASLTISGLQAEDEADYYCSSYTRTFTYVFGTGTKVTVL
B13: Ab_19 scFv-Fc (scFv, V domains shown)
VH: EVQLVESGAEVKKPGESLKISCKGSGYSFTSYWIGWVRQMPGKGLEWMGIIYPGDSDTRYSPSFQGQVTISADKSISTAYLQWSSLKASDTAMYYCARRGDLDAFDIWGQGTMVTVSS
VL: QPGLTQPPAASGTPGQRVTVSCSGASANIGSNAVSWFKQFPETAPRLLISGNTHRPSGVPDRVSGSKSGTSASLTISGLQSDDEADYYCAAWDDSLNGYVFGSGTKVTVL
B14: S1-R3-T1-C4 (Ab_8) scFv-Fc (scFv, V domains shown)
VH: QVQLVQSGAEVKKPGSSVKVSCKASGGTFSSYAISWLRQAPGQGLEWMGWINPNSGGTNYAQKFQGRVTMTRDTSISTAYMELSRLRSDDTAVYYCARGSGGYYLGWGQGTLVTVSS
VL: QPGLTQPPSVSKGLRQTATLTCTGNSNNVGNQGAAWLQQHQGHPPKLLSYMNNNRPPGISERFSASRSGNTASLTITGLQPEDEADYYCSAWDSSLSRWVFGGGTKLSVL
B15: RBD-R3-E1-B3 Ab (Ab_32) scFv-Fc (scFv, V domains shown)
VH: QVQLVQSGAEVKKPGESLKISCKGSGYSFTSYWIGWVRQMPGKGLEWMGIIYPGDSDTRYSPSFQGQVTISADKSISTAYLQWSSLKASDTAMYYCARGWQWHDYWGQGTLVTVSS
VL: QTVVTQEPAVSVALGQTVRITCQGDSLRSYYASWYQQKPGQAPVLVVYDKDKRPSGIPDRFSGSTSGNTASLTITGAQAEDEADYYCNSRDRSDNHVVFGGGTKLTVL
B16: RBD-R3-E1-A5 Ab (Ab_30) scFv-Fc (scFv, V domains shown)
VH: QVQLVQSGGGVVQPGKSLRLSCTASGFTFSDFPIHWVRQAPGKGLEWVGVISYDGNIKYYGDSVKGRFTISRDNAKNSLYLQMNSLRVEDTAVYYCARGGSSFDIWGQGTTVTVSS
VL: SYELTQPPSVSEAPRQRVTISCSGSTSNIGNNAVSWYQHLPGKAPKLLIYYNERLPSGVSDRFSGSKSGTSASLAISGLRSEDEADYYCAAWDDSLSGHVVFGGGTKLTVL
B17: Ab_21 scFv-Fc (scFv, V domains shown)
VH: QVQLVQSGGGLVQPGGSLRLSCATSGFTFDDYAMHWVRQAPGKGLEWVSGISWNSGSIGYVDSVKGRFTISRDNRNNKVYLQMNNLRAEDTAVYYCARDWWGSIDHWGLGTLVTVSS
VL: QSALTQPRSVSGSPGQSVTISCTGTSSDVGGYDYVSWYQQHPGKAPKLIIYDVSKRPSGVPDRFSGSKSGNTASLTVSGLQAEDEADYYCSSYTSSSPVVFGGGTKLTVL
B18: S1-RBD-R3-T1-B12 Ab (Ab_31) scFv-Fc (scFv, V domains shown)
VH: QVQLVQSGAEVKKPGSSVKVSCKASGGTFSSYTISWVRQAPGQGLEWMGGIIPILGTPNYAQKFQDRVAITADKSTSTAYMELSSLRSEDTAVYYCAVGSGWYSGFDYWGQGTLVTVSS
VL: NFMLTQPHSVSESPGKTVTISCTGSSGSIASNYVQWYQQRPGSAPTTVIYEDSQRPSGVPDRFSGSIDSSSNSASLTISGLKTEDEADYYCQSFHNSNPVIFGGGTKLTVL
B19: Ab_26 scFv-Fc (scFv, V domains shown)
VH: QVQLVQSGGGLVQPGRSLRLSCAASGFTFDDYAMHWVRQVPGKGLEWVSGIDWNSGVIGYADSVKGRFTISRDNAKNSLYLQMNSLRAEDTALYYCAKDAYSYGFLGAFDIWGQGTMVTVSS
VL: LPVLTQPPSVSVAPGQTASITCGGDNIRTKGVHWYQQKPGQAPLLVIYYASDRPSGIPERFSGSSSGNTATLTISRVEAGDEADYYCQVWDSSSDLVVFGGGTTLTVL
B20: Ab_16 scFv-Fc (scFv, V domains shown)
VH: QVQLVQSGGGVVQPGRSLRLSCAASGFTFSNYGMHWVRQAPGKGLEWVALIWERGSKKDYADSVKGRFTVSRDNSKNTLYLQMNSLRPEDTAVYFCAREGISMTGAEYFQHWGQGTLVTVSS
VL: QSVLTQPPSVSGSPGQRVTMSCTGSSSNIGAGYDVHWYQQVPGAAPRLLIYGTNNRPSGVPDRFSGSKSGTSASLTITGLQAEDEADYYCQSYDNSLTDPYVFGTGTKVTVL
B21: Ab 38 scFv-Fc (scFv, V domains shown)
VH: QVTLKESGPTLVKPTQTLTLTCTFSGFSLTTSGVSVGWIRQPPGKALEWLALIHWDDDKRYSPSLRSRLTITRDTSKNQVVLTVTDMDPADTGTYYCASFIMTVYAEYFEDWGQGTLVTVSS
VL: EIVLTQSPATLSVSPGERATLSCRASQSVSSNLAWYQQKPGQAPRLLMYDVSTRATGIPARFSGSGSGTEFSLTISSLQSEDFAVYYCQQRGAWPLTFGGGTKVEIK

What follows are binders tested against SARS-CoV-2 receptor binding domain (RBD), recombinant, biotinylated (SARS-CoV-2) (assay: not given).

Binder	Kd [pM]	koff [s⁻¹]	kon [M⁻¹ s⁻¹]
B1	268	3.93e-05	147000

What follows are binders tested against WT Spike (SARS-CoV2) (assay: not given).

Binder	Kd [pM]	Response
B2	9.07	0.216
B3	8.9	0.132
B4	8.55	0.0732
B5	149	0.126
B6	8.9	0.0219
B7	7.85	0.0672
B8	9.01	0.0985
B9	8.22	0.313
B10	6.35	0.248
B11	8.84	0.0845
B12	8.78	0.202
B13	8.9	0.121
B14	7.15	0.118
B15	6.32	0.131
B16	1.02	0.107
B17	9.25	0.147
B18	< 1	0.101
B19	11	0.185
B20	11.8	0.346

The binders below were run against WT Spike (SARS-CoV-2 spike protein) (SARS-CoV-2) (assay: not given).

Binder	Kd [pM]	Response
B21	7.86	0.274

Each binder was assayed against SARS-CoV-2 spike protein on stably transduced 293T cells (SARS-CoV-2) (assay: FACS binding curve, percent of cells labeled).

Binder	fold shift of the FACS binding curve to the right, IgG against scFv-Fc [fold]
B1	10
